How the values were obtained:
[1] = tested on: acne lesion; experiment: Topical treatment of acne lesions in human subjects; type: in vivo; details: for visible effect on acne covered area: person, before PLAP treatment
From the text: Highly purified placenta derived PLAP, or essentially pure recombinant PLAP, or an essentially pure active derivative thereof, is dispersed in a suitable carrier and gently massaged onto the acne lesion. The carrier used in the invention is Vaselinum cholesterinatum, but it may be replaced by Vaselinum flavum or Vaselinum album. Vaselinum cholesterinatum consists of about 1.5 wt.-% cholesterol, about 5.0 wt.-% cerae lanae, and about 93.5 wt.-% Vaselinum flavum. In this invention, for a preparation containing PLAP or rPLAP in a carrier the term “PLAP cream” is used.
Other appropriate forms of PLAP containing compositions may contain other suitable carriers in the forms of gels, lotions, unguents, emollients, colloidal dispersions, suspensions, emulsions, oils, sprays, liposomes, non-ionic detergents, foams, mousses, and the like as used in the skin care industry with no damaging effects on the skin. Preferably, the chosen carrier would enable PLAP to exert its antiacne effect or at least would not reduce it. In addition, the carrier should not be comedogenic and should not inhibit interaction of PLAP with the acne lesion. In the preparation of the carrier-PLAP mixture, PLAP is first dissolved in distilled water or a suitable buffer and then mixed with the carrier. The PLAP cream contains highly purified PLAP or rPLAP, in the amount of 0.1 to 10 mg per one gram carrier gently massaged onto the area of acne lesion. The amount of PLAP depends on the severity of acne. In cases of light, moderate and severe acnes the recommended amount of PLAP per 1 gram carrier is 0.1 to 0.5 mg, 0.6 to 2 mg, and 2.1 to 10 mg PLAP, respectively. Before each daily treatment the acne lesion needs to be cleaned with a facial cleanser as recommended by the manufacturer. The length of the daily treatments is typically for about 3 weeks, but it may be extended until the lesion is healed.
Complete recovery of the original skin texture required about 5 weeks with no additional treatments needed between 3 to 5 weeks.
Complete recovery of the original skin texture required about 6 weeks with no additional treatments needed between 3 to 6 weeks.
Complete recovery of the original skin texture required about 8 weeks with no additional treatments needed between 4 to 8 weeks.
This idea was tested with 16-17-year-old males who started to develop acne during a 2 to 4-day period. Treatments (2-mg PLAP in 1-gram Vaselinum cholesterinatum) were applied at bedtime only once.

[2] = tested on: HaCaT cells; experiment: MTT assay, proliferation/viability of HaCaT keratinocytes; type: cell-based, human; details: 72 hours; for Viability of Cells (Absorption: A540) HaCaT cells: MTT, 200 nM PLAP or rPLAP, 100 µM ATP, mean ± S.D. of eight wells
From the text: The immortalized human HaCaT keratinocyte cell line, isolated in 1988 [Boukamp, P., Petrussevska, R.T., Breitkreutz, D., Hornung, J., and Markham, A., “Normal keratinization in a spontaneously immortalized aneuploid human keratinocyte cell line,” J. Cell. Biol., 106, 761-771, 1988], was provided for these studies by the Institute of Dermatology, Szeged University, , Szeged, Hungary). HaCaT cells were maintained in 10% fetal bovine serum (FBS) and 1% penicillin-streptomycin -containing Dulbecco’s modified Eagle’s medium (DMEM) up to 80% confluency in an incubator (5% CO2, 37° C.). Cells were plated into 96 well plates at 20% confluency and incubated for 72 hours in an incubator (5% CO2, 37° C.) with 200 nM purified PLAP or rPLAP in the absence or presence of 100 µM ATP.
(§1) The relative changes in the number of viable cells were determined by the MTT assay. This colorimetric assay is based on the ability of living healthy cells (mostly the mitochondrial compartment), but not dead cells, to reduce 3-(4,5-dimethyl thizaol-2-yl)-[…] to a blue formazan product [Carmichael, J., De Graft, W.G., Gazdar, A.F., Minna, J.D. and Mitchell, J.B. Evaluation of tetrazolium-based semi-automated colorimetric assay: Assessment of chemosensitivity resting. Cancer Res. 47, 936-942, 1987] This technique is a widely used and accepted method to accurately determine the relative numbers of viable cells. For example, this is the official method used by the National Cancer Institute to screen anticancer drugs.
(§2) A MULTISKAN MS microplate reader purchased from Labsystems (Franklin, Massachusetts) was used to measure the formation of formazan as an increase in absorbance at a test wavelength of 540 nm and a reference wavelength of 690 nm. In the data analysis, data were expressed as mean values ± standard deviation (S.D.) of eight incubations (from eight wells) in one experiment. In each case, incubations were performed for 72 hours.

[3] = tested on: CCD 966 SK fibroblasts; experiment: MTT assay, proliferation/viability of CCD 966 SK fibroblasts; type: cell-based, human; details: 72 hours; for Viability of Cells (Absorption: A540) CCD 966 SK: MTT, 200 nM PLAP or rPLAP, 100 µM ATP, mean ± S.D. of eight wells
Description: CCD 966 SK fibroblasts, originally derived from a subject and purchased from American Type Culture Collection (Alexandria, Virginia), were at passage 5 when used. The fibroblasts were maintained and treated as described above for the HaCaT cells.
as §1, §2

[4] = tested on: shingles; experiment: Treatment of shingles in human subjects; type: in vivo; details: two subjects, recurrent painful shingles, oral, 4-times a day
Description: The PLAP cream can be used for the local treatment of Shingles or other skin lesions caused by reactivated HSV-1 or HSV-2 generally, but not always, along with treatment with a prescribed antiviral drug. The same carriers and additives may be used as described for the acne treatment, The recommended amount of PLAP per 1 gram carrier is 2.0 to 10.0 mg. Generally, the larger the lesion the more PLAP per 1 gram carrier is needed. As examples, if the area of the lesion is 10 cm^2 or smaller, 2 mg per 1 gram carrier is suitable. If the area of the lesion is larger than 10 cm^2 then, depending on the lesion’s size, the recommended concentration of PLAP is between 2.1 to 10.0 mg per 1 gram carrier. Local treatment of the lesion with PLAP cream is performed once daily along with oral administration of the prescribed antiviral drug (usually four-times a day). Local administration of the antiviral drug is not recommended. In case of shingles, when the lesion treated with placental alkaline phosphatase or an active derivative is smaller than 2.0 cm^2, the use of an antiviral drug is optional. In cases of skin lesions caused by HSV-1 or HSV-2, the use of an oral antiviral drug is optional regardless of the lesion’s size.
Two individuals (one person and one person) had recurrent painful shingles at 10-16 months intervals, usually lasting for 4-6 weeks without treatment, associated with pain lasting beyond 6 weeks that prevented them to get a good night sleep.
When a new recurrence of shingles occurred again, the same two subjects were co-treated with local PLAP cream (5 mg PLAP in 1-gram Vaselinum cholesterinatum) and oral acyclovir. The two subjects responded to this combination treatment similarly.
They started the treatment with acyclovir and PLAP cream on day 0. […] Complete healing of both subjects occurred by day 12 (the subject) and day 14 (the subject).
Two female individuals, had recurrent (practically yearly) moderate shingles (one had under the breast, the other had on the arm, both approximately the size of 1-2 cm^2) previously lasting for about 2-3 weeks. […]

[5] = tested on: HaCaT cells; experiment: [U-14C]ATP hydrolysis and adenosine formation in intact HaCaT cells; type: cell-based, human; details: 2 hours
Description: (§3) In these experiments, PLAP was incubated with human HaCaT cells and human 966 SK fibroblasts. The plasma membranes of both cell lines contain ectonucleotidases that hydrolyze ATP to result in the formation of adenosine. If PLAP binds ATP as reported earlier, it will compete with the ectonucleotidases for ATP. In this case, in the presence of PLAP the formation of adenosine, the final product of ATP hydrolysis, should be reduced. The experiment performed under this Example served to examine this possibility.
(§4) HaCaT and 966 SK cells were grown in 10% serum containing DMEM medium (0.1 ml) in 96-well plates to confluence. First, the medium was changed for serum-free medium. […] (0.1 mM) of [U-^14C] ATP (purchased from Amersham). Incubations in an incubator were performed for 2 hours. […] aliquots were withdrawn into small centrifuge tubes followed by the addition of 0.15 ml of chloroform methanol 2:1 mixture containing 1 mM adenosine (to help UV visualization and reduce cellular uptake of [U-^14C] Adenosine) to precipitate the proteins and eliminate lipids. After centrifugation, 5 µl aliquots of the lower phase were transferred to fluorescent PEI-cellulose (polyethyleneimine-impregnated cellulose) plates, and after drying the plates they were developed with water in a flat bottom chamber. After drying and visualizing the adenosine and nucleotide spots under UV (all nucleotides remained in the application spots), the respective areas were cut out, placed in scintillation vials, and radioactivity was measured in a liquid scintillation spectrometer. Data is the mean of three independent determinations (from three separate wells) ± S.D. in the same experiment.

[6] = tested on: CCD 966 SK cells; experiment: [U-14C]ATP hydrolysis and adenosine formation in intact CCD 966 SK fibroblasts; type: cell-based, human; details: 2 hours
Description: as §3, §4

[7] = CCD 966 SK fibroblasts, agent alone
[8] = PLAP, 500 nM, 0.1 mM [U-14C]ATP, mean ± S.D. of three wells

Molecule: O=C(OOC(=O)c1ccccc1)c1ccccc1 [benzoyl peroxide]
- visible effect on acne covered area ([1]; left side of face, as prescribed for 2 months): only small visible positive effects
- visible effect on acne covered area ([1]; left side of face, as prescribed for 3 months): only small visible positive effects
- visible effect on acne covered area ([1]; right side of face, as prescribed for 2 months): only small visible positive effects
- visible effect on acne covered area ([1]; right side of face, as prescribed for 3 months): only small visible positive effects

Molecule: Nc1ncnc2c1ncn2[C@@H]1O[C@H](COP(=O)(O)OP(=O)(O)OP(=O)(O)O)[C@@H](O)[C@H]1O [ATP, adenosine 5′ triphosphate, reference compound]
- effect on proliferation (in words) ([2]; HaCaT cells, agent alone): no effects
- Viability of Cells (Absorption: A540) HaCaT cells [2]: 0.841±0.037
- effect on proliferation (in words) [3, 7]: no effects
- Viability of Cells (Absorption: A540) CCD 966 SK [3]: 0.686±0.029

Molecule: Nc1nc2c(ncn2COCCO)c(=O)[nH]1 [acyclovir]
- effect on pain [4]: no significant effect on pain
- time of full healing of shingles [4]: by the end of third week
- remission of shingles ([4]; in 10-12 days): 40-50%

B1: PLAP: full length placental alkaline phosphatase, highly purified from commercial PLAP (Sigma-Aldrich) (protein, UniProt P05187 23-506, looked up)
Alkaline phosphatase, …: IIPVEEENPDFWNREAAEALGAAKKLQPAQTAAKNLIIFLGDGMGVSTVTAARILKGQKKDKLGPEIPLAMDRFPYVALSKTYNVDKHVPDSGATATAYLCGVKGNFQTIGLSAAARFNQCNTTRGNEVISVMNRAKKAGKSVGVVTTTRVQHASPAGTYAHTVNRNWYSDADVPASARQEGCQDIATQLISNMDIDVILGGGRKYMFRMGTPDPEYPDDYSQGGTRLDGKNLVQEWLAKRQGARYVWNRTELMQASLDPSVTHLMGLFEPGDMKYEIHRDSTLDPSLMEMTEAALRLLSRNPRGFFLFVEGGRIDHGHHESRAYRALTETIMFDDAIERAGQLTSEEDTLSLVTADHSHVFSFGGYPLRGSSIFGLAPGKARDRKAYTVLLYGNGPGYVLKDGARPDVTESESGSPEYRQQSAVPLDEETHAGEDVAVFARGPQAHLVHGVQEQTFIAHVMAFAACLEPYTACDLAPPAGTTD
- formation of radiolabeled adenosine (in words) [5]: dramatic reduction
- hydrolysis of ATP and related nucleotides (in words) [5]: greatly reduced the hydrolysis
- Total [U-14C] nucleotide [5, 8]: 1,572,853 ± 33,737 c.p.m./well
- [U-14C] Adenosine [5, 8]: 71,048 ± 2,220 c.p.m./well
- formation of radiolabeled adenosine (in words) [6]: dramatic reduction
- hydrolysis of ATP and related nucleotides (in words) [6]: greatly reduced the hydrolysis
- Total [U-14C] nucleotide [6, 8]: 1,653,949 ± 42,791 c.p.m./well
- [U-14C] Adenosine [6, 8]: 34,019 ± 4,892 c.p.m./well
- effect on proliferation (in words) ([2]; HaCaT cells, agent alone): clearly stimulated proliferation
- Viability of Cells (Absorption: A540) HaCaT cells [2]: 1.086± 0.047
- effect on proliferation (in words) ([2]; epidermal (HaCaT) cells, in the presence of ATP): inhibited the proliferation
- effect on proliferation (in words) [3, 7]: clearly stimulated proliferation
- Viability of Cells (Absorption: A540) CCD 966 SK [3]: 0.853±0.040
- effect on proliferation (in words) ([3]; fibroblasts (CCD 966 SK), in the presence of ATP): inhibited the proliferation
- time to complete healing of acne ([1]; 16-17-year-old males, acne developing during 2 to 4 days, 2-mg PLAP in 1-gram Vaselinum cholesterinatum, applied once at bedtime): 2 to 5 days
- scar tissue formation ([1]; 16-17-year-old males, early acne, 2-mg PLAP in 1-gram carrier, applied once): without any scar tissue formation
